Test results from US20150150950.

Legend:
[1] = tested on: inactive wildtype GST-GSK3β (K^84A kinase inactivating mutation)
[2] = tested on: GST-GSK3α (Cell Signaling, boiled to inactivate)
[3] = tested on: GST-GSK3β T^390A mutant (kinase inactive, K^84A)
[4] = tested on: GST-GSK3β T^390A/T^43A double mutant (kinase inactive, K^84A)
[5] = tested on: GST-GSK3β T^43A mutant (kinase inactive, K^84A)
[6] = tested on: Recombinant kinase-active GSK3α
[7] = tested on: active GST-GSK3β-T^43A mutant
[8] = tested on: purified active wildtype GST-GSK3β
[9] = tested on: active GST-GSK3β-T^390A mutant

Sequence of purified recombinant active p38 MAPK (Cell Signaling) (Q16539 2-360): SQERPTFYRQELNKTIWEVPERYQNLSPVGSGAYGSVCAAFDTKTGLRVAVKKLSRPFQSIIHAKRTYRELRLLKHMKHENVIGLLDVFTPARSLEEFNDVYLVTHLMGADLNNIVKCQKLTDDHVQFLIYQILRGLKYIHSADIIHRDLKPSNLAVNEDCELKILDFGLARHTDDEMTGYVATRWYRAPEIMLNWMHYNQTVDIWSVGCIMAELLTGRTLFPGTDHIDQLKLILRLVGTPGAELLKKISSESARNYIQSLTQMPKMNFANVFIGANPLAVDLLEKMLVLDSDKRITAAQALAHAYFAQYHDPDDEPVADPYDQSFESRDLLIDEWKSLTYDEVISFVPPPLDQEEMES
Sequence of p38 MAPK in 293T cells (Q16539 2-360): as above
Sequence of Recombinant kinase-active GSK3α (P49840 2-483): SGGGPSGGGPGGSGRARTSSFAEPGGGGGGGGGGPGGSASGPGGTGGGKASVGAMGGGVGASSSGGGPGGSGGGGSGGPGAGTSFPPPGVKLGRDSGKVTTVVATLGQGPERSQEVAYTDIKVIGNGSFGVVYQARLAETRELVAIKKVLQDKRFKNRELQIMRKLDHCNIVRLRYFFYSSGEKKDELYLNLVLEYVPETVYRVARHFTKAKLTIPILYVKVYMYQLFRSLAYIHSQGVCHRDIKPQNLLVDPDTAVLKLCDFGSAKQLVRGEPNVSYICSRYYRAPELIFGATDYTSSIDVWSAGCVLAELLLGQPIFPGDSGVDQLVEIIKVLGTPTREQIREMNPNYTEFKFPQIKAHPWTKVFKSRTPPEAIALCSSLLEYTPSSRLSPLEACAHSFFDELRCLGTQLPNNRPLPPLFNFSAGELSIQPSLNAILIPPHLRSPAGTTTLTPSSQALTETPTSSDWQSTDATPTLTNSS

For p38 MAPK in 293T cells, the “in vitro p38 MAP kinase assay (^32P incorporation into GSK3β)” value [1] was “p38 MAPK immunoprecipitated from MKK6 thymocytes or MKK6-transfected 293T cells phosphorylated recombinant catalytically-inactive GSK3β in vitro and this phosphorylation was blocked by the p38 MAPK inhibitor”.

For “purified recombinant active p38 MAPK (Cell Signaling)”, the “in vitro kinase assay (^32P incorporation into GSK3α)” value [2] was “GSK3α was not phosphorylated by recombinant p38 MAPK in vitro”, the “in vitro kinase assay (^32P incorporation)” value [3] was “Phosphorylation of the GSK3β-T^390A mutant by p38 MAPK was partially reduced but not abrogated” and the “in vitro kinase assay (^32P incorporation)” value [4] was “phosphorylation of the GSK3β-T^43A/T^390A mutant was abrogated”. For the same substance, the “in vitro kinase assay (^32P incorporation)” value [5] was “p38 MAPK was still able to partially phosphorylate a GSK3β-T^43A mutant”, the “GSK3α activity (in vitro kinase assay, GSM substrate peptide) after preincubation with p38 MAPK” value [6] was “p38 MAPK did not affect the activity of GSK3α” and the “GSK3β activity (in vitro kinase assay, GSM substrate peptide) after preincubation with p38 MAPK” value [7] was “p38 MAPK inhibited both wild-type GSK3β and GSK3β-T^43A mutant”. For the same substance, the “in vitro kinase assay (^32P incorporation into GSK3β)” value [1] was “A purified recombinant activated p38 MAPK also phosphorylated GSK3β in vitro and this phosphorylation was blocked by SB203580” and the “GSK3β activity (in vitro kinase assay, GSM substrate peptide) after preincubation with p38 MAPK” value [8] was “p38 MAPK inhibited both wild-type GSK3β and GSK3β-T^43A mutant”.

recombinant active Akt (Cell Signaling) was tested, and the “GSK3β activity (in vitro kinase assay, GSM substrate peptide) after preincubation with Akt” value (“GSK3β activity … with Akt” for short) [9] was “Akt inhibited wild-type GSK3β and the two mutants”, the “GSK3β activity … with Akt” value [7] was “Akt inhibited wild-type GSK3β and the two mutants” and the “GSK3β activity … with Akt” value [8] was “Akt inhibited wild-type GSK3β and the two mutants”.

For recombinant active ERK (Cell Signaling), the “in vitro kinase assay (^32P incorporation)” value [3] was “The T^43A mutation but not the T^390A mutation abrogated phosphorylation of GSK3β by ERK” and the “in vitro kinase assay (^32P incorporation)” value [5] was “The T^43A mutation but not the T^390A mutation abrogated phosphorylation of GSK3β by ERK”.
